Measurements: the RNAGym collection of RNA variant scans (doi:10.1073/pnas.2313332121)

B1: TPR t1 (parent)
chain: GACCAAUCUGCCCUCAGAGCUCGAGAACAUCUUCGGAUGCAGAGGAGGCAGGCUUCGGUGGCGCGAUAGCGCCAACGUCCUCAACCUCCAAUGCAUCCCACCACAUGAUGAUGCCUGAAGAGCCUUGGUUUUUUG

Variants of: B1
Assay: polymerase ribozyme fitness, log enrichment relative to wild type (log ratio); higher = more active; in vitro selection for triplet polymerase activity
Procedure, shortened: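 In triplicate, a single round of in vitro selection was run on each mutant library, PCR-built and transcribed, covering one subunit of a heterodimeric triplet polymerase ribozyme. Frozen incubation at −7 °C followed annealing with a biotinylated primer, partner subunit and triplets, and extended constructs were then gel-excised, streptavidin-captured and taken through RT-PCR. Fitness is the logarithm of genotype enrichment over wild-type enrichment, from inverse-variance-weighted replicate averages of Illumina-sequenced inputs and outputs. […] only genotypes with ≥10 input reads and ≥1 read per output were kept.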

Variant | polymerase ribozyme fitness (log ratio)
A6G C64U | 0.116
A5U C8G G63U | -0.752
A6G G45C | -1.17
A6U C49U C53U C62A G110A | -5.45
A5G G45A | -0.52
A5U U14C A50U C72A C124A U131G | -1.27
A5U G51A | -3.23
A6G G71A | -0.397
A6U G52C C56U C80G A121G | -1.97
A5U G63U G65C C80U C85U A95G C97U C115U | -6.48
A6G G10U C56A G57A G58A G69U C86U | -1.09
A5U A6U C62G C104U | -1.25
A6G A74U C76U C115A | -0.102
A6G C11A C34A G47A A111C | -5.04
A5U G71C U106G | -3.95
A6U A50G C97U C115U | -2.3
A6U C123G | 1.29
A6G C11G C70G A118U | -1.53
A6C C40G C56G | -2.36
A5U G19A G57U U78G G113U G135U | -4.71
A5U U96A | -0.893
A6C G63U | -1.03
A6G C11G G52U U59A G60C | -0.455
A6C U7A C8A A29C U55A C88G C94U | -2.74

Variant | polymerase ribozyme fitness (log ratio)
A6U C53U U54G G93U U106A U129A | -2.14
A6U C13A C40U C62A A95U | -3.6
A6U G44C C72G G110A C115A | -4.85
A5U C11A G42C G63A C88U U106A A121C U125A | -5.18
A5U C40G G71U U87G | -3.8
A6U G19A G44A C53A G57A A100U C124U | -4.72
A6U C15G A43U C115U U116G G120A G122A | -3.93
A5G G117C | -3.71
U7A A18U U59C | -2.69
A6U C12U G110U U130C | -0.715
A6G G36U C80U C88U G110C C124U | -5.65
A6C A37U G47U G52U G63C C124U | -4.06
A6U C73A | 0.0629
A6U C73U | 0.309
A6C U81C U87G | -0.0503
A6U C13U C62U U132A | -0.793
A6C G45A | -2.73
A6U G57A | -0.751
A5U A41U G61A C82G G120A U125G | -2.7
A6U G10A G71A | 0.159
A6U U9C | 0.514
A6U U96C | -0.215
A5U A6C G47A | -1.7
A6U C8A G44U G107A U112A | -6.05

Variant | polymerase ribozyme fitness (log ratio)
A6U G19U | -2.29
A5U C15U A16U U125A | -4.8
A5U U112G | -0.587
A6G C98U U125G | -3.71
A6C A83C C97U G110A | -1.92
A5G U14A C73U | -2.23
A6U C124A | 1.49
A5U C56A | -0.829
A6C C72G U87A U112A G113U G117C U130G | -5.39
A6G G69A | -2.86
A6U C64U U92G | -3.05
A6U G63U | -1.06
A6G G17C | -4.39
A5U A83C | -0.98
A5G U112A G127U | 0.804
A6U A90U C98G C102U A108U C123G | -6.7
A6U A16U A50C A83C U129G | -3.64
A6G C80U C115G | -1.33
A6U G69A | -2.02
A5U C72U G128U | -2.15
A6C C8A G60A U87A | -0.0712
A6U A50U G57C A75U | -0.743
A6G C12U G58A G113C | -1.75
A6U C49G G122A | -0.638

Variant | polymerase ribozyme fitness (log ratio)
A5U C12U U125A | -0.727
A6G C8U C98G | -4.61
A6G C28G C115G U125G | -3.74
A5U G17A C49A G60A C89U | -5.58
A5U G57A | -0.568
A6U G10U C15G C28A A100C C123U | -5.42
A6C A50U C76G U96G | -2.15
A5U G120U | 0.128
A5G G44C C82A | -2.23
A5U G48U | -1.69
A6U C79G | -1.17
A6G C8G C12A C28A C56G U81C U112A | -4.51
A5U C13A C15G C56A A121U | -1.44
A6U A18U | -2.27
A6G A18C U54C | -2.19
A6U C22A | -4.95
A6U C12U A27U | -1.6
A6U C40U | 0.421
A6U A46G C70U U133A | -1.52
A5U G57A C70U | -1.67
A6C G61U U92C U129C | -2.43
A5U C53A C62A G110U U130C | -4.41
U7A A27C C49U U55G | -4.4
A6G C40U C56U G127C | -1.94

Variant | polymerase ribozyme fitness (log ratio)
A5U G45U | -1.13
A5U G45A | -1.11
A6U C11G G48U C56U C64U A83C | -4.78
U7A A29U C72U U106A | -1.06
A6C G44U C64U U96A C104A | -3.82
A6G G39A C86U G117A | -0.696
A5U G44U C72A A91C G113C U126G G128A | -5.74
A6U G45U C101A | -2.89
A6C A43G U78G A91G | -2.53
A6U A41G | 0.32
A6G A24C C88G C102A A111U G122C U133G | -6.51
A6C G69U U78C | 0.0885
A6U G10U C53U G122C C123A U125A | -0.333
A6U C12A U78A C80U C86A G120A | -3.45
U7A A29U G60U C97U G113C G120U U133A | -4.07
A6U C72A A84U U132C | -0.139
A6U C11G G69U U125G | -1.05
A6G U87A U92C A95C C114U | -3.66
A6U C12G G45C A74U C94U | -0.942
A6C C101A | -1.63
A5U C22A | -3.71
A6U U106A U116A | -2.08
A5U A16C | -2.72
A6U G60A C97G A111G U125A G135A | -6.23

Variant | polymerase ribozyme fitness (log ratio)
A5U A27U | -3.65
A6U C40G A50U | -1.66
A6C G10A A37G G77A C79U C124A | -0.0414
A6U G42U C89G C115A U125C | -3.18
A6U C56U | 0.177
A6U U54A C62U | 0.317
A5U C12U G71U C114A G128A | -4.71
A6G G48U G52C | -2.21
A6C C13G G17A A18G | -4.66
U7A A24C C40G G93U U112A C123U | -5.82
A6U C28G G45U C56G C64A G120C | -7.29
A6G C115A | 0.525
A5U C31U G110C | -6.73
A6U G60U C115A G117U | -4.41
A5U G10A G17C | -4.03
A6U G57A G58C A103C A105C | -6.92
A5U C86G | -1.26
A5G G135U | -1.22
A6U G44U C53U G77U G110A | -3.2
A6U U30C G60A G122A | -5.6
A6U G71C G120C C123G | -0.502
A6U C40U A84G C89U G113U G122C | -5.19
A5U G39U G45U C82A C123A | -2.8
A6U A27U A121G U130A | -0.823

Variant | polymerase ribozyme fitness (log ratio)
A5U G42C U87A A91G | -1.35
A6U C12A A16U G19U G42A G63U G93A U106A G120A U130A | -7.49
A6U A41C C79G G113C U133A | -4.49
A5U C53A C72U C104U G113C | -2.38
A5U C88G G120C | 0.286
A6C C94U U106A G113C U126C U133G | -4.12
A6G C11G C13G C99A C102U | -5.35
A5U G63U A75U | -0.67
A6U C13G A26U A43U C76A C115G | -7.08
A5G G44A G45U G63U C79U C124A | -1.7
A6G C8A U55A C62A | -0.384
A5U G69U A91C G113A U116C U130C | -5.42
A6U C12A A103U | -4.89
A5U C8G C20U C40A | -3.31
A6G G39A | 0.16
A6G G69U G120U | 0.637
A5U C11G C64U U78C U126C | -0.928
A6G C8G G69U | 0.471
A5U C64G C88G C104A A121G | -7.55
A6C G19A A41C C70A | -4.25
A5U C49A A95G | -0.603
A6U C13G G52A A111C U116G A121C | -1.83
A6G C97U | -0.751
